Measured values: IntAct's records for PubMed 15020407

B1: High osmolarity signaling protein SHO1 (Saccharomyces cerevisiae), P40073 (parent)
chain: MSISSKIRPTPRKPSRMATDHSFKMKKFYADPFAISSISLAIVSWVIAIGGSISSASTNESFPRFTWWGIVYQFLIICSLMLFYCFDLVDHYRIFITTSIAVAFVYNTNSATNLVYADGPKKAAASAGVILLSIINLIWILYYGGDNASPTNRWIDSFSIKGIRPSPLENSLHRARRRGNRNTTPYQNNVYNDAIRDSGYATQFDGYPQQQPSHTNYVSSTALAGFENTQPNTSEAVNLHLNTLQQRINSASNAKETNDNSNNQTNTNIGNTFDTDFSNGNTETTMGDTLGLYSDIGDDNFIYKAKALYPYDADDDDAYEISFEQNEILQVSDIEGRWWKARRANGETGIIPSNYVQLIDGPEEMHR
partner: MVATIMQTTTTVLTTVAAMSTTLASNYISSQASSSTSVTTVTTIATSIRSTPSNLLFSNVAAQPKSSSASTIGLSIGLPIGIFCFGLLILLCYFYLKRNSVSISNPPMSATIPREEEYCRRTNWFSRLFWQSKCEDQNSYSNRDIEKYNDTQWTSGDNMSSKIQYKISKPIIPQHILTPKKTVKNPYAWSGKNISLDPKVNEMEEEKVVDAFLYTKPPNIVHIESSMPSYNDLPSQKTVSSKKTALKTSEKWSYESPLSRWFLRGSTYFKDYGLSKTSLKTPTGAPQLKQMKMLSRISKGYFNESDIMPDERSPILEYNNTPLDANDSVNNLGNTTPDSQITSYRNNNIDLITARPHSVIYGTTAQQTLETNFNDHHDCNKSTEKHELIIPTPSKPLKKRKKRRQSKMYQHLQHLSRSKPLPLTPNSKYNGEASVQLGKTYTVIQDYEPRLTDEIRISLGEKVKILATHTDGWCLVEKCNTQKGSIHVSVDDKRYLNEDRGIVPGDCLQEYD

Variants of: B1
Settings: with fus1_yeast FUS1, P11710

effect of a mutation on the interaction	Variant
decreasing interaction	P352A
